Test results published in patent US12269859B2, “Synthetic immune receptors and methods of use thereof” (Angeles Therapeutics, Inc., priority 2016, dated 2025).

Test system: target antigen-expressing cell line
Assay: Jurkat NFAT-GFP assay, coculture with target cell lines expressing the respective target antigen (summary Table 10A)
Type: cell-based, human
Design: key: The signs +/−, +, 2+ etc. after the name of the cell lines indicate the relative degree of positivity on the Jurkat-NFAT-GFP assay as measured by the % GFP positive cells; +: relative degree of positivity on the Jurkat-NFAT-GFP assay as measured by the % GFP positive cells; 2+: relative degree of positivity on the Jurkat-NFAT-GFP assay as measured by the % GFP positive cells
Outline: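 Positivity is scored when SIR-expressing reporter Jurkat cells show more GFP-positive cells than parental controls after coculture with the antigen-bearing line. Effector-to-target ratio is about 1:2, coculture lasts roughly 4–18 hours, and GFP is quantified by FACS.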

B1: 112916-C01 (protein)
chain: MALPVTALLLPLALLLHAARPDVVMTQTPLTLSVTIGQPASISCKSSQSLLDSDGKTYLHWLLQRPGQSPKRLIFLVSKLDSGVPDRFTGSGSGTDFTLKISRVEAEDLGVYYCWQGTHFPQTFGGGTKLEIKLEGKPIPNPLLGLDSTGSGEDLKNVFPPEVAVFEPSKAEIAHTQKATLVCLATGFYPDHVELSWWVNGKEVHSGVCTDPQPLKEQPALNDSRYCLSSRLRVSATFWQNPRNHFRCQVQFYGLSENDEWTQDRAKPVTQIVSAEAWGRADCGITSASYHQGVLSATILYEILLGKATLYAVLVSALVLMAMVKRKDSRGRAKRSGSGATNFSLLKQAGDVEENPGPTSMDWIWRILFLVGAATGAHSFEVQLQESGPDLVKPSQSLSLTCTVTGYSITSGYSWHWIRQFPGNKLEWMGYIHYSGDTDYNPSLKSRFSITRDTSKNQFFLQLNSVTTEDTATYYCATPGGFVYWGQGTLVTVSSTREQKLISEEDGSGIQNPDPAVYQLRDSKSSDKSVCLFTDFDSQTNVSQSKDSDVYITDKCVLDMRSMDFKSNSAVAWSNKSDFACANAFNNSIIPEDTFFPSSDVPCDVKLVEKSFETDTNLNFQNLSVIGFRILLLKVAGFNLLMTLRLWSSRAKRSGSGVKQTLNFDLLKLAGDVESNPGPSRGHMTEYKPTVRLATRDDVPRAVRTLAAAFADYPATRHTVDPDRHIERVTELQELFLTRVGLDIGKVWVADDGAAVAVWTTPESVEAGAVFAEIGPRMAELSGSRLAAQQQMEGLLAPHRPKEPAWFLATVGVSPDHQGKGLGSAVVLPGVEAAERAGVPAFLETSAPRNLPFYERLGFTVTADVEVPEGPRTWCMTRKPGA
modifications: Polynucleotide encoding a Synthetic Immune Receptor (SIR)
NFAT-GFP ASSAY Positive Cell lines (coculture with L363 cells): (+) | NFAT-GFP ASSAY Positive Cell lines (coculture with U266 cells): U266 (+/−), L363

B2: 010417-Y05 (protein)
chain: MALPVTALLLPLALLLHAARPLEGKPIPNPLLGLDSTGSGEDLKNVFPPEVAVFEPSKAEIAHTQKATLVCLATGFYPDHVELSWWVNGKEVHSGVCTDPQPLKEQPALNDSRYCLSSRLRVSATFWQNPRNHFRCQVQFYGLSENDEWTQDRAKPVTQIVSAEAWGRADCGITSASYHQGVLSATILYEILLGKATLYAVLVSALVLMAMVKRKDSRGRAKRSGSGATNFSLLKQAGDVEENPGPTSMALPVTALLLPLALLLHAARPDQIVLTQSPAIMSASPGEKVTISCSASSSVSYMYWYQQKPGSSPKPWIYRTSNLASGVPARFSGSGSGTSYSLTISNMEAEDAAAYYCQQYHSYPTTFGGGTKLEVKGGGGSGGGGSGGGGSEVQLVESGGGLVQPKGSLKLSCAASGFSFNTYAMNWVRQAPGKGLEWIAHIRSKSNNFATYYADSVKDRFSISRDASENILFLQMNNLKTEDTAMYYCVRQGGDFPMDYWGQGTSVTVSSTREAAAKEIVMTQSPATLSLSPGERATLSCRASQDISKYLNWYQQKPGQAPRLLIYHTSRLHSGIPARFSGSGSGTDYTLTISSLQPEDFAVYFCQQGNTLPYTFGQGTKLEIKGGGGSGGGGSGGGGSQVQLQESGPGLVKPSETLSLTCTVSGVSLPDYGVSWIRQPPGKGLEWIGVIWGSETTYYNSSLKSRVTISKDNSKNQVSLKLSSVTAADTAVYYCAKHYYYGGSYAMDYWGQGTLVTVSSTREQKLISEEDGSGIQNPDPAVYQLRDSKSSDKSVCLFTDFDSQTNVSQSKDSDVYITDKCVLDMRSMDFKSNSAVAWSNKSDFACANAFNNSIIPEDTFFPSSDVPCDVKLVEKSFETDTNLNFQNLSVIGFRILLLKVAGFNLLMTLRLWSSRAKRSGSGVKQTLNFDLLKLAGDVESNPGPSRGHMTEYKPTVRLATRDDVPRAVRTLAAAFADYPATRHTVDPDRHIERVTELQELFLTRVGLDIGKVWVADDGAAVAVWTTPESVEAGAVFAEIGPRMAELSGSRLAAQQQMEGLLAPHRPKEPAWFLATVGVSPDHQGKGLGSAVVLPGVEAAERAGVPAFLETSAPRNLPFYERLGFTVTADVEVPEGPRTWCMTRKPGA
NFAT-GFP ASSAY Positive Cell lines (coculture with HEL cells): (+), HEL (+) | NFAT-GFP ASSAY Positive Cell lines (coculture with NALM6 cells): (+), HEL (+) | NFAT-GFP ASSAY Positive Cell lines (coculture with RAJI cells): RAJI (+), NALM6

B3: 101817-E05 (protein)
chain: MALPVTALLLPLALLLHAARPQSVVTQPPSVSAAPGQKVTISCSGSSSNIGNNYVSWYQQLPGTAPKLLIYDNNKRPSGIPDRFSASKSGTSATLGITGLQTRDEADYYCGTWDSSLSAWVFGGGTKLTVLGLEIQNPDPAVYQLRDSKSSDKSVCLFTDFDSQTNVSQSKDSDVYITDKCVLDMRSMDFKSNSAVAWSNKSDFACANAFNNSIIPEDTFFPSSDVPCDVKLVEKSFETDTNLNFQNLSVIGFRILLLKVAGFNLLMTLRLWSSRAKRSGSGVKQTLNFDLLKLAGDVESNPGPTSMDWIWRILFLVGAATGAHSFEQVQLVQSGAEVKKPGSSVKVSCKASGDTFSSYYISWVRQAPGQGLEWMGRIIPILGIANYAQKYQGRVTLSADKSTSTSYMELNSLSSEDTAVYYCALDWSYSIDYWGQGTLVTVSSTREDLKNVFPPEVAVFEPSKAEIAHTQKATLVCLATGFYPDHVELSWWVNGKEVHSGVCTDPQPLKEQPALNDSRYCLSSRLRVSATFWQNPRNHFRCQVQFYGLSENDEWTQDRAKPVTQIVSAEAWGRADCGITSASYHQGVLSATILYEILLGKATLYAVLVSALVLMAMVKRKDSRGRAKRSGSGATNFSLLKQAGDVEENPGPSRGHMTEYKPTVRLATRDDVPRAVRTLAAAFADYPATRHTVDPDRHIERVTELQELFLTRVGLDIGKVWVADDGAAVAVWTTPESVEAGAVFAEIGPRMAELSGSRLAAQQQMEGLLAPHRPKEPAWFLATVGVSPDHQGKGLGSAVVLPGVEAAERAGVPAFLETSAPRNLPFYERLGFTVTADVEVPEGPRTWCMTRKPGA
NFAT-GFP ASSAY Positive Cell lines (coculture with U266 cells): U266(+/−)

B4: 112916-A01 (protein)
chain: MALPVTALLLPLALLLHAARPDIVMTQTPLSLPVTPGEPASISCRSSRSLLDSDDGNTYLDWYLQKPGQSPQLLIYTLSYRASGVPDRFSGSGSGTDFTLKISRVEAEDVGVYYCMQRVEFPITFGQGTRLEIKRLEGKPIPNPLLGLDSTGSGEDLKNVFPPEVAVFEPSKAEIAHTQKATLVCLATGFYPDHVELSWWVNGKEVHSGVCTDPQPLKEQPALNDSRYCLSSRLRVSATFWQNPRNHFRCQVQFYGLSENDEWTQDRAKPVTQIVSAEAWGRADCGITSASYHQGVLSATILYEILLGKATLYAVLVSALVLMAMVKRKDSRGRAKRSGSGATNFSLLKQAGDVEENPGPTSMDWIWRILFLVGAATGAHSFEQVQLVESGGGVVQPGRSLRLSCAASGFIFSRYGMHWVRQAPGKGLKWVAVIWYDGSNKLYADSVKGRFTISRDNSKNTLYLQMNSLRAEDTAVYYCARDYYDNSRHHWGFDYWGQGTLVTVSSTREQKLISEEDGSGIQNPDPAVYQLRDSKSSDKSVCLFTDFDSQTNVSQSKDSDVYITDKCVLDMRSMDFKSNSAVAWSNKSDFACANAFNNSIIPEDTFFPSSDVPCDVKLVEKSFETDTNLNFQNLSVIGFRILLLKVAGFNLLMTLRLWSSRAKRSGSGVKQTLNFDLLKLAGDVESNPGPSRGHMTEYKPTVRLATRDDVPRAVRTLAAAFADYPATRHTVDPDRHIERVTELQELFLTRVGLDIGKVWVADDGAAVAVWTTPESVEAGAVFAEIGPRMAELSGSRLAAQQQMEGLLAPHRPKEPAWFLATVGVSPDHQGKGLGSAVVLPGVEAAERAGVPAFLETSAPRNLPFYERLGFTVTADVEVPEGPRTWCMTRKPGA
modifications: Polynucleotide encoding a Synthetic Immune Receptor (SIR)
NFAT-GFP ASSAY Positive Cell lines (coculture with SKOV3 cells): SKOV3 (+)

B5: 022817-U05 (protein)
chain: MALPVTALLLPLALLLHAARPDIQMNQSPSSLSASLGDTITITCHASQNINVWLSWYQQKPGNIPKLLIYKASNLHTGVPSRFSGSGSGTGFTITISSLQPEDIATYYCQQGQSYPWTFGGGTKLEIKRLEGKPIPNPLLGLDSTGSGEDLKNVFPPEVAVFEPSKAEIAHTQKATLVCLATGFYPDHVELSWWVNGKEVHSGVCTDPQPLKEQPALNDSRYCLSSRLRVSATFWQNPRNHFRCQVQFYGLSENDEWTQDRAKPVTQIVSAEAWGRADCGITSASYHQGVLSATILYEILLGKATLYAVLVSALVLMAMVKRKDSRGRAKRSGSGATNFSLLKQAGDVEENPGPTSMDWIWRILFLVGAATGAHSFEEVQLQQSGPELVKPGASVKISCKASGYSFTGYFMNWVKQSHGKSLEYIGRFNPYNGETLYNQKFKGKATLTVDKSSSTVHMELLSVTSEDSAVYYCGRSGNDDAMDYWGQGTSVTVSSATREQKLISEEDGSGIQNPDPAVYQLRDSKSSDKSVCLFTDFDSQTNVSQSKDSDVYITDKCVLDMRSMDFKSNSAVAWSNKSDFACANAFNNSIIPEDTFFPSSDVPCDVKLVEKSFETDTNLNFQNLSVIGFRILLLKVAGFNLLMTLRLWSSRAKRSGSGVKQTLNFDLLKLAGDVESNPGPSRGHMTEYKPTVRLATRDDVPRAVRTLAAAFADYPATRHTVDPDRHIERVTELQELFLTRVGLDIGKVWVADDGAAVAVWTTPESVEAGAVFAEIGPRMAELSGSRLAAQQQMEGLLAPHRPKEPAWFLATVGVSPDHQGKGLGSAVVLPGVEAAERAGVPAFLETSAPRNLPFYERLGFTVTADVEVPEGPRTWCMTRKPGA
modifications: Polynucleotide encoding a Synthetic Immune Receptor (SIR)
NFAT-GFP ASSAY Positive Cell lines (coculture with Jurkats-TCRgd-SIR cells): Jurkats-TCRgd-SIR
